Data taken from the supplement of paper PMC7877785.
± gives the uncertainty stated by the source.

Experiment: self-splicing fitness, log relative to wild type (ln ratio); higher = more splicing; Tetrahymena group I intron in knt gene, E. coli kanamycin selection, DiMSum; sequences stand for … in CUCUCU…GGAGGGAAAAGUUAUCAGGCAUGCACCUGGUAGCUAGUCUUUAAACCAAUAGAUUGCAUCGGUUUAAAAGGCAAGACCGUCAAAUUGCGGGAAAGGGGUCAACAGCCGUUCAGUACCAAGUCUCAGGGGAAACUUUGAGAUGGCCUUGCAAAGGGUAUGGUAAUAAGCUGACGGACAUGGUCCUAACCACGCAGCCAAGUCCUAAGUCAACAGAUCUUCUGUUGAUAUGGAUGCAGUUCACAGACUAAAUGUCGGUCGGGGAAGAUGUAUUCUUCUCAUAAGAUAUAGUCGGACCUCUCCUUAAUGGGAGCUAGCGGAUGAAGUGAUGCAACACUGGAGCCGCUGGGAACUAAUUUGUAUGCGAAAGUAUAUUGAUUAGUUUUGGAGUACUCGUGGUCG
Method in brief: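 A randomised library covering all eight P1ex-region intron nucleotides was built with the intron in the knt kanamycin-resistance gene on pET-22b(+) and held in E. coli BL21(DE3). Cells were grown overnight at 37°C or 30°C on LB agar, with or without 25 μg/mL kanamycin, plus 100 μg/mL carbenicillin, 50 μM IPTG and 0.2% rhamnose, and pooled colonies were amplicon-sequenced on an Illumina HiSeq 2500. DiMSum fitness is the error-weighted combination of wild-type-normalised replicate fold changes, kanamycin versus none.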

Sequence | self-splicing fitness (ln) (30 °C) | self-splicing fitness (ln) (37 °C)
GUAUAGCAAUAUUACGCAGG | -3.15 ± 0.45 | -3.36 ± 0.47
GUAUAGCAAUAUUACGCAUG | -3.35 ± 0.24 | -1.01 ± 0.17
GUAUAGCAAUAUUACGCCUA | -1.64 ± 0.27 | -0.116 ± 0.22
GUAUAGCAAUAUUACGCCUG | -2.67 ± 0.11 | -0.647 ± 0.1
GUAUAGCAAUAUUACGCCUU | -2.11 ± 0.29 | -0.499 ± 0.24
GUAUAGCAAUAUUACGCGAG | -1.31 ± 0.11 | -1.47 ± 0.12
GUAUAGCAAUAUUACGCGCA | -1.2 ± 0.17 | -0.955 ± 0.14
GUAUAGCAAUAUUACGCGGA | -3.08 ± 0.33 | -0.662 ± 0.2
GUAUAGCAAUAUUACGCGUC | -2.87 ± 0.27 | -0.113 ± 0.24
GUAUAGCAAUAUUACGGGGG | -3.63 ± 0.37 | -2.53 ± 0.48
GUAUAGCAAUAUUACGGUAG | -1.43 ± 0.095 | -1.23 ± 0.15
GUAUAGCAAUAUUACGGUGC | -2.45 ± 0.23 | -1.76 ± 0.36
GUAUAGCAAUAUUACGUACA | -2.07 ± 0.28 | -0.449 ± 0.23
GUAUAGCAAUAUUACGUACU | -3.8 ± 0.39 | -2.05 ± 0.2
GUAUAGCAAUAUUACGUAUC | -2.07 ± 0.18 | -0.978 ± 0.2
GUAUAGCAAUAUUACGUCCG | -2.98 ± 0.18 | -1.21 ± 0.17
GUAUAGCAAUAUUACGUGCC | -3.23 ± 0.34 | -2.54 ± 0.31
GUAUAGCAAUAUUACGUGGU | -3.14 ± 0.23 | -1.29 ± 0.15
GUAUAGCAAUAUUACGUGUU | -3.38 ± 0.18 | -1.63 ± 0.18
GUCAAGCAAUAUUACGAAAG | -3.72 ± 0.4 | -1.39 ± 0.49
GUCAAGCAAUAUUACGAAUA | -1.85 ± 0.16 | -1.42 ± 0.14
GUCAAGCAAUAUUACGACGC | -1.35 ± 0.11 | 0.832 ± 0.18
GUCAAGCAAUAUUACGACGU | -1.26 ± 0.056 | 0.099 ± 0.07
GUCAAGCAAUAUUACGAGCA | -1 ± 0.35 | -2.29 ± 0.28
GUCAAGCAAUAUUACGAGGC | -3.94 ± 0.24 | -2.83 ± 0.18

Sequence | self-splicing fitness (ln) (30 °C) | self-splicing fitness (ln) (37 °C)
GUCAAGCAAUAUUACGCAUC | -3.22 ± 0.13 | -1.74 ± 0.18
GUCAAGCAAUAUUACGCCAA | – | -1.52 ± 0.28
GUCAAGCAAUAUUACGCCUG | -3.6 ± 0.25 | -2.6 ± 0.22
GUCAAGCAAUAUUACGCGUG | -2.92 ± 0.16 | -1.78 ± 0.16
GUCAAGCAAUAUUACGCGUU | -2.07 ± 0.076 | -0.761 ± 0.097
GUCAAGCAAUAUUACGCUUU | -2.41 ± 0.21 | -1.73 ± 0.16
GUCAAGCAAUAUUACGGAAC | -3.13 ± 0.24 | -3.19 ± 0.21
GUCAAGCAAUAUUACGGCUC | -0.927 ± 0.057 | 0.181 ± 0.084
GUCAAGCAAUAUUACGGGUG | -4.19 ± 0.24 | -2.73 ± 0.17
GUCAAGCAAUAUUACGGUCU | -2.7 ± 0.084 | -0.906 ± 0.075
GUCAAGCAAUAUUACGGUGU | -2.05 ± 0.071 | -0.734 ± 0.083
GUCAAGCAAUAUUACGGUUC | -0.665 ± 0.068 | -0.255 ± 0.1
GUCAAGCAAUAUUACGUACG | -2.46 ± 0.14 | -1.9 ± 0.17
GUCAAGCAAUAUUACGUAUG | -4.08 ± 0.13 | -2.6 ± 0.11
GUCAAGCAAUAUUACGUCAG | -3.55 ± 0.23 | -3.26 ± 0.37
GUCAAGCAAUAUUACGUCCU | -2.13 ± 0.11 | -1.04 ± 0.11
GUCAAGCAAUAUUACGUGCG | -2.29 ± 0.1 | -0.638 ± 0.1
GUCAAGCAAUAUUACGUUAG | -4.36 ± 0.24 | -3.3 ± 0.23
GUCCAGCAAUAUUACGAAUC | 0.437 ± 0.16 | 0.114 ± 0.2
GUCCAGCAAUAUUACGACCA | -0.7 ± 0.21 | -0.517 ± 0.17
GUCCAGCAAUAUUACGAGAG | -1.15 ± 0.078 | 0.117 ± 0.077
GUCCAGCAAUAUUACGAGGC | -2.32 ± 0.22 | -2.35 ± 0.37
GUCCAGCAAUAUUACGAUAC | -0.876 ± 0.082 | -0.0588 ± 0.099
GUCCAGCAAUAUUACGAUUA | -0.767 ± 0.074 | -0.551 ± 0.077
GUCCAGCAAUAUUACGCAAC | -0.987 ± 0.099 | -0.844 ± 0.11

Sequence | self-splicing fitness (ln) (30 °C) | self-splicing fitness (ln) (37 °C)
GUCCAGCAAUAUUACGCCCC | -1.09 ± 0.18 | -0.607 ± 0.18
GUCCAGCAAUAUUACGCGAU | -3.24 ± 0.19 | -2.4 ± 0.19
GUCCAGCAAUAUUACGCUCU | -0.327 ± 0.1 | 0.137 ± 0.12
GUCCAGCAAUAUUACGCUGG | -4.01 ± 0.12 | -3.25 ± 0.11
GUCCAGCAAUAUUACGGAAA | -0.248 ± 0.095 | 0.62 ± 0.12
GUCCAGCAAUAUUACGGAUU | -2.84 ± 0.09 | -0.789 ± 0.091
GUCCAGCAAUAUUACGGCAU | -0.147 ± 0.085 | -0.171 ± 0.093
GUCCAGCAAUAUUACGGGAG | -1.15 ± 0.063 | -0.322 ± 0.082
GUCCAGCAAUAUUACGGUUA | -0.0348 ± 0.05 | 0.165 ± 0.055
GUCCAGCAAUAUUACGGUUC | -0.386 ± 0.049 | 0.219 ± 0.065
GUCCAGCAAUAUUACGUCAG | -4.93 ± 0.28 | -2.16 ± 0.14
GUCCAGCAAUAUUACGUGAU | -0.729 ± 0.047 | -0.345 ± 0.071
GUCCAGCAAUAUUACGUUCU | -2.35 ± 0.09 | -0.777 ± 0.08
GUCCAGCAAUAUUACGUUUC | -0.538 ± 0.056 | -0.05 ± 0.074
GUCGAGCAAUAUUACGAAAG | -2.57 ± 0.29 | -2.2 ± 0.35
GUCGAGCAAUAUUACGAGCG | -2.88 ± 0.19 | -1.03 ± 0.23
GUCGAGCAAUAUUACGAGUC | -3.73 ± 0.25 | -2.2 ± 0.18
GUCGAGCAAUAUUACGAGUG | -1.62 ± 0.088 | -1.85 ± 0.11
GUCGAGCAAUAUUACGAGUU | -2.66 ± 0.18 | -2.52 ± 0.28
GUCGAGCAAUAUUACGAUAU | -1.44 ± 0.13 | -0.298 ± 0.17
GUCGAGCAAUAUUACGCCCA | – | -0.376 ± 0.33
GUCGAGCAAUAUUACGCGAC | -2.57 ± 0.2 | -2.12 ± 0.29
GUCGAGCAAUAUUACGGAGA | -2.84 ± 0.23 | -2.47 ± 0.31
GUCGAGCAAUAUUACGGAUC | -1.36 ± 0.087 | -0.586 ± 0.097
GUCGAGCAAUAUUACGGCAU | -1.04 ± 0.067 | 0.111 ± 0.083

Sequence | self-splicing fitness (ln) (30 °C) | self-splicing fitness (ln) (37 °C)
GUCGAGCAAUAUUACGGGAC | -3.05 ± 0.22 | -2.05 ± 0.21
GUCGAGCAAUAUUACGGGGG | -2.05 ± 0.29 | –
GUCGAGCAAUAUUACGGGUA | -2.65 ± 0.27 | -2.91 ± 0.22
GUCGAGCAAUAUUACGGUGG | -3.54 ± 0.27 | -2.24 ± 0.22
GUCGAGCAAUAUUACGUCGU | -0.515 ± 0.12 | -0.592 ± 0.17
GUCGAGCAAUAUUACGUGAU | -2.2 ± 0.15 | -2.11 ± 0.18
GUCGAGCAAUAUUACGUUAA | – | -2.06 ± 0.47
GUCGAGCAAUAUUACGUUCA | -0.837 ± 0.084 | -0.462 ± 0.086
GUCGAGCAAUAUUACGUUUG | -2.54 ± 0.28 | -2.11 ± 0.24
GUCUAGCAAUAUUACGAAAA | -2.3 ± 0.26 | -1.26 ± 0.22
GUCUAGCAAUAUUACGAAAG | – | -2.42 ± 0.39
GUCUAGCAAUAUUACGAGAA | -1.8 ± 0.39 | -0.829 ± 0.27
GUCUAGCAAUAUUACGAGAG | -2.4 ± 0.17 | -1.33 ± 0.12
GUCUAGCAAUAUUACGAGCA | -1.29 ± 0.24 | -0.906 ± 0.24
GUCUAGCAAUAUUACGAUAG | – | -2.96 ± 0.27
GUCUAGCAAUAUUACGAUAU | -0.897 ± 0.12 | -0.0984 ± 0.12
GUCUAGCAAUAUUACGCCUG | – | -3.47 ± 0.41
GUCUAGCAAUAUUACGGAUC | -1.99 ± 0.28 | -1.85 ± 0.27
GUCUAGCAAUAUUACGGCAG | – | -1.72 ± 0.44
GUCUAGCAAUAUUACGGCCA | -1.87 ± 0.35 | -0.587 ± 0.22
GUCUAGCAAUAUUACGGCCC | -2.32 ± 0.39 | 0.974 ± 0.31
GUCUAGCAAUAUUACGGGAC | – | -1.65 ± 0.45
GUCUAGCAAUAUUACGGUAA | -1.67 ± 0.11 | -0.172 ± 0.11
